# The supplement of paper PMC10567573
# B1: PTPRD (parent)
# chain: ITWFKDFLPVDTSNNNGRIKQLRS
# Variants of: B1
# Assay: protein stability index of a GFP-peptide fusion (GPS, HEK-293T) (PSI 1-6); higher = more stable
# Conditions: c terminus: a fixed tail appended
# 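Also: lentivirally expressed fusions sorted by FACS into six bins by GFP to DsRed ratio, PSI derived from sequencing read proportions per bin multiplied by bin number.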
row,Variant,protein stability index
1,I1W,2.17
2,I1Y,1.92
3,T2A,2.34
4,T2C,2.09
5,T2D,1.53
6,T2E,2.33
7,T2F,2.41
8,T2G,2.78
9,T2H,2.15
10,T2I,2.18
11,T2K,2.03
12,T2L,1.41
13,T2M,1.96
14,T2N,2
15,T2P,3
16,T2Q,1.84
17,T2R,1.59
18,T2S,2.12
19,T2V,1.86
20,T2W,2.21
21,T2Y,1.68
22,W3A,3.76
23,W3C,2.82
24,W3D,3.43

row,Variant,protein stability index
1,W3E,4.07
2,W3F,2.25
3,W3G,3.03
4,W3H,3.33
5,W3I,1.93
6,W3K,2.85
7,W3L,2.31
8,W3M,2.95
9,W3N,3.23
10,W3P,3.75
11,W3Q,3.13
12,W3R,3.1
13,W3S,3.62
14,W3T,3.3
15,W3V,2.46
16,W3Y,2.95
17,F4A,2.17
18,F4C,1.94
19,F4D,3.25
20,F4E,3.97
21,F4G,3.35
22,F4H,2.27
23,F4I,1.62
24,F4K,2.37

row,Variant,protein stability index
1,F4L,1.87
2,F4M,1.59
3,F4N,2.57
4,F4P,2.74
5,F4Q,2.21
6,F4R,2.49
7,F4S,1.57
8,F4T,2.03
9,F4V,1.87
10,F4W,2.02
11,F4Y,1.95
12,K5A,1.98
13,K5C,2.25
14,K5D,2.44
15,K5E,2.91
16,K5F,1.97
17,K5G,2.17
18,K5H,2.06
19,K5I,2.19
20,K5L,2.08
21,K5M,2.43
22,K5N,2.12
23,K5P,2.24
24,K5Q,2.07

row,Variant,protein stability index
1,K5R,1.79
2,K5S,2.37
3,K5T,2.1
4,K5V,1.51
5,K5W,1.66
6,K5Y,2.75
7,D6A,1.78
8,D6C,2.26
9,D6E,2.36
10,D6F,3.07
11,D6G,2.27
12,D6H,1.9
13,D6I,3.07
14,D6K,1.85
15,D6L,3.08
16,D6M,2.14
17,D6N,1.94
18,D6P,1.85
19,D6Q,1.4
20,D6R,2.37
21,D6S,2.27
22,D6T,1.6
23,D6V,2.3
24,D6W,2.26

row,Variant,protein stability index
1,D6Y,2.85
2,F7A,2.45
3,F7C,2.31
4,F7D,2.74
5,F7E,2.45
6,F7G,2.25
7,F7H,2.76
8,F7I,2.26
9,F7K,1.88
10,F7L,2.41
11,F7M,2.46
12,F7N,2.47
13,F7P,2.32
14,F7Q,2.05
15,F7R,1.8
16,F7S,2.36
17,F7T,2.38
18,F7V,1.85
19,F7W,1.82
20,F7Y,1.99
21,L8A,2.14
22,L8C,1.81
23,L8D,2.31
24,L8E,1.85

row,Variant,protein stability index
1,L8F,1.88
2,L8G,2
3,L8H,1.93
4,L8I,2.32
5,L8K,2.28
6,L8M,1.49
7,L8N,2.1
8,L8P,1.96
9,L8Q,1.78
10,L8R,2.41
11,L8S,2.04
12,L8T,2.23
13,L8V,1.77
14,L8W,1.76
15,L8Y,1.64
16,P9A,2
17,P9C,1.58
18,P9D,2.09
19,P9E,2
20,P9F,1.93
21,P9G,1.72
22,P9H,1.45
23,P9I,2.02
24,P9K,1.96

row,Variant,protein stability index
1,P9L,2.84
2,P9M,2.31
3,P9N,2.28
4,P9Q,2.12
5,P9R,1.43
6,P9S,2.13
7,P9T,1.42
8,P9V,2.04
9,P9W,1.75
10,P9Y,1.66
11,V10A,2.03
12,V10C,2.05
13,V10D,2.39
14,V10E,2.23
15,V10F,2.65
16,V10G,2.28
17,V10H,2.07
18,V10I,2.49
19,V10K,2.07
20,V10L,1.95
21,V10M,1.86
22,V10N,2.34
23,V10P,2.26
